In patent publication US20210284749A1 one finds IC50 (read off the curve) data, which are given here for one molecule.

The target in this experiment is human BCMA-Fc (R&D system, 193-BC-050) (human) (UniProt Q02223). Briefly: competition ELISA on coated human BCMA-Fc; antibody titrated and mixed with 200 ng/ml BAFF, bound BAFF detected, absorbance 450 nm. A general note: In an ELISA, binding on a coated surface is turned into a signal by an enzyme label.
Chain of human BCMA-Fc (R&D system, 193-BC-050) (human) (Q02223 1-54 limits assumed): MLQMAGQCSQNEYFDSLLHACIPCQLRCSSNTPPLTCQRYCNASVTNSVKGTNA

B1: J6MO (antibody, INN chains, looked up, V domains shown)
VH: QVQLVQSGAEVKKPGSSVKVSCKASGGTFSNYWMHWVRQAPGQGLEWMGATYRGHSDTYYNQKFKGRVTITADKSTSTAYMELSSLRSEDTAVYYCARGAIYDGYDVLDNWGQGTLVTVSS
VL: DIQMTQSPSSLSASVGDRVTITCSASQDISNYLNWYQQKPGKAPKLLIYYTSNLHSGVPSRFSGSGSGTDFTLTISSLQPEDFATYYCQQYRKLPWTFGQGTKLEIK
The molecule B1 gave an IC50 (read off the curve) of 4 nM.
